From patent US12365732 (23ANDME, dated 2025)

Experiments:
[1] = target: T1, hu-CD96 isoform 2 on CHO cells (human, UniProt P40200 22-585); test: FACS, CD155-Fc-FLAG 10 nM, Ab 4 nM
T1 construct: also called CHO-CD96 (isoform 2); CD96-CHOs
T1 sequence: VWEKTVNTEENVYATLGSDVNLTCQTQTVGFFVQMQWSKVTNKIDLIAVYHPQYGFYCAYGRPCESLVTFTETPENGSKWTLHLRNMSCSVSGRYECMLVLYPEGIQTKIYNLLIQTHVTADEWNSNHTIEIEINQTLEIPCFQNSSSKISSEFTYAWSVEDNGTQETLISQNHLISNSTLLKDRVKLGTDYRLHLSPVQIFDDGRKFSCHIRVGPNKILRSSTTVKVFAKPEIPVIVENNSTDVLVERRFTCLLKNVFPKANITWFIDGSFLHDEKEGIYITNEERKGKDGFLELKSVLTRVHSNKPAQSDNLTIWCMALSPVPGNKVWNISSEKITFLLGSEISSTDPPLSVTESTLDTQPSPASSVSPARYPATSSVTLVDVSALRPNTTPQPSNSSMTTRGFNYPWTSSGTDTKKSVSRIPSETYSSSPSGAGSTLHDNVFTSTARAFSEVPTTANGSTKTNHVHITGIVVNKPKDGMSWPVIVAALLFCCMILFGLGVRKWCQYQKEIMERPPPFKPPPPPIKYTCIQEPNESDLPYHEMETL
Description: (§1) CHO cells stably expressing isoform 2 of hu-CD96 (Origene, catalog #RC221005) were incubated with anti-CD96 antibodies for 20 minutes at 4° C. The cells were washed, and then incubated with 10 nM human CD155-Fc-FLAG for 30 minutes at 4° C. Cells were washed, and then human CD155-Fc-FLAG binding was detected by incubation with anti-FLAG-APC (Columbia Biosciences, catalog #D3-1718-1MG) for 20 minutes at 4° C. Cell binding was analyzed by flow cytometry with a CytoFLEX (Beckman Coulter). CD155 binding is represented as median fluorescence intensity (MedFI).
(§2) As shown in Table 20 (below), the anti-CD96 antibodies, mAb1.v7.NGS8, mAb1.v7.NGS9, mAb1.v7.NGS10, mAb1.v7.NGS11, and h10G1 inhibited soluble hu-CD155 binding to CD96-expressing CHO cells dose-dependently and potently. The antibody NK92.39 (Fuchs et al., 2004; Biolegend catalog #338405) inhibited receptor binding similarly.

[2] = target: T1, hu-CD96 isoform 2 on CHO cells; test: FACS, CD155-Fc-FLAG 10 nM, Ab 20 nM
Description: as §1, §2

[3] = target: T1, hu-CD96 isoform 2 on CHO cells; test: FACS, CD155-Fc-FLAG 10 nM, Ab 0.8 nM
Description: as §1, §2

B1: h10G1 IgG (humanized 10G1) (antibody, V domains shown)
VH: EIQLVQSGSELKKPGASVKVSCKASGYPFTTYGMSWVRQAPGQGLEWMGWINTDSGVPTYADDFKGRFVFSLDTSVSTAYLQISSLKAEDTAVYFCARNIYYGWGNFDYWGQGTLVTVSS
VL: EIVMTQSPDFQSVTPKEKVTITCRASQDIYRNLHWYQQKPDQTPKLLIKHASDSISGIPSRFSGSGSGTDFTLTINSLEAEDAAAYYCLQGYSMPYTFGGGTKVEIKG
notes: human IgG1 N297G
Q: With B1 as the binder, how does the “CD155-Fc binding (MedFI)” value [1] read?
A: 4860 MedFI

Q: And the “CD155-Fc binding (MedFI)” value [2]?
A: 4860 MedFI

Q: And the “CD155-Fc binding (MedFI)” value [3]?
A: 5870 MedFI

B2: mAb1.v7.NGS11 IgG (antibody, V domains shown)
VH: EVQLVQSGAEVKKPGASVKVSCKASGFTFTNNFMHWVRQAPGQGLEWIGFIHANSGITNINEKFKNRVTMTTDTSTSTAYMELRSLRSEDTAVYYCRSDGVYEGYFDYWGQGTLVTVSS
VL: DIQLTQSPSSLSASVGDRVTITCKASQNVGTAIVWYQQKPGKAPKVLIYSASTRYTGVPSRFSGSGSGTDFTLTISSLQPEDFATYYCQQYSSSPLTFGQGTKVEIKG
notes: human IgG1 N297G
Q: How did the “CD155-Fc binding (MedFI)” value [1] turn out when B2 was run?
A: 4860 MedFI

Q: And the “CD155-Fc binding (MedFI)” value [2]?
A: 4460 MedFI

Q: What about the “CD155-Fc binding (MedFI)” value [3] of the same binder?
A: 23600 MedFI
